From article doi:10.1101/2024.08.24.609485

Target: GST-N-WASP-PRD (human) (UniProt O00401)
Assay: mass photometry

With “GST-N-WASP-PRD (from UniProt O00401 261-332) (domain or fragment)” the stoichiometry N was 2.
